{"source": "paper PMC8809517", "about": "“Cofactor-independent RNA editing by a synthetic S-type PPR protein”", "test_in_all_cases": "high-throughput RNA pulldown from lysate on Ni-NTA beads; HRP: 50 mM Tris pH 8, 150 mM NaCl, 1 mM beta-mercaptoethanol, 50 ug/ml BSA, 3 ug/ml yeast RNA, 0.5% heparin; ITC and FP: Tris pH 8, 200 mM KCl, 5% glycerol; MST: 50 mM Tris pH 8, 200 mM NaCl, 1 mM DTT, BSA, heparin, 0.05% Tween 20", "settings_in_all_cases": "tags: N-terminal His-eGFP", "key": {"[1]": {"molecular_target": "T1, GFP-9S library array, motif 4 ND N98D;D124Y (synthetic construct, N98D;D124Y)", "T1 chain": "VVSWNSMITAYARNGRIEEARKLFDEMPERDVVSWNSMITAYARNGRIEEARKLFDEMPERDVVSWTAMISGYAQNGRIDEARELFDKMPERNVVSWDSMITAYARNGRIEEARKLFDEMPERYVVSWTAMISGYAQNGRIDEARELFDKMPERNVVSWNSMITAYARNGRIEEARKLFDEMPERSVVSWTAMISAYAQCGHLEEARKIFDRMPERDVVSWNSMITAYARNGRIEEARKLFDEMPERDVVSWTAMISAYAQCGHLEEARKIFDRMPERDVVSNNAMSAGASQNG"}, "[2]": {"molecular_target": "T2, GFP-9S library array, motif 4 ND N98T;D124N (synthetic construct, N98T;D124N)", "T2 chain": "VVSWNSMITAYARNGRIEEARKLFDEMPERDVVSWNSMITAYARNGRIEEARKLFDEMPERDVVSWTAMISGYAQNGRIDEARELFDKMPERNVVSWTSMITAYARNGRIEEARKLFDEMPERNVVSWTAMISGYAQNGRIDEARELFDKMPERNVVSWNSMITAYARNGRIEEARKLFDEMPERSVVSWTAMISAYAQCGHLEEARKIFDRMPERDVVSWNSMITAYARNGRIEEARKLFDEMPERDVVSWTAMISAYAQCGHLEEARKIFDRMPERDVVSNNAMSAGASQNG"}, "[3]": {"molecular_target": "T3, GFP-9S library array, motif 4 ND N98G;D124I (synthetic construct, N98G;D124I)", "T3 chain": "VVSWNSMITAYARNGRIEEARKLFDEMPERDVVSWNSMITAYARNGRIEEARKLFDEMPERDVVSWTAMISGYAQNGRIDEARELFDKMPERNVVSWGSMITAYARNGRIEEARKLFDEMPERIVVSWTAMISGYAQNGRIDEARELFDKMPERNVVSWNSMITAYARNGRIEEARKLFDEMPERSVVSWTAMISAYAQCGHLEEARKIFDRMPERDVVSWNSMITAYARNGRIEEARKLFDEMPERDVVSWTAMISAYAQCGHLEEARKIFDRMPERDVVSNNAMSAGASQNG"}, "[4]": {"molecular_target": "T4, GFP-9S library array, motif 4 ND N98K (synthetic construct, N98K)", "T4 chain": "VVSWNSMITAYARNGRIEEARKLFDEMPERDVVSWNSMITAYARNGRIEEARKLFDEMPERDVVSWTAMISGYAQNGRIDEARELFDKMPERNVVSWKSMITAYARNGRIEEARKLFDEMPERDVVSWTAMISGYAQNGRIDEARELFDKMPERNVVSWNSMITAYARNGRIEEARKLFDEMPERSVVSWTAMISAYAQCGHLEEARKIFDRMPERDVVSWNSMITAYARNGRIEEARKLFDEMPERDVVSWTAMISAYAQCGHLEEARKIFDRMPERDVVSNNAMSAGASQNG"}, "[5]": {"molecular_target": "T5, GFP-9S library array, motif 4 ND N98Y;D124I (synthetic construct, N98Y;D124I)", "T5 chain": "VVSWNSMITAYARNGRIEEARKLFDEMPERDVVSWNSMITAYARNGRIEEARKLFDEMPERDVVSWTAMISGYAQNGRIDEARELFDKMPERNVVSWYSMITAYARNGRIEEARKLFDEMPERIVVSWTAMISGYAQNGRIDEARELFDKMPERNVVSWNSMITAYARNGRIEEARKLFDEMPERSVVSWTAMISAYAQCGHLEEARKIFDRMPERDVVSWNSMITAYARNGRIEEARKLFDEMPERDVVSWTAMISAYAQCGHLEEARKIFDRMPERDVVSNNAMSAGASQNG"}}, "data": [{"binder": "AUUAAACGUGA (ssRNA)", "note": "[IR-rpoA-A]", "values": [{"measurement": "Kd", "setting": "[1]; label: 5' IRDye 800CW", "result": 1180, "unit": "nM"}, {"measurement": "Kd", "setting": "[2]; label: 5' IRDye 800CW", "result": 8.35, "unit": "nM"}, {"measurement": "Kd", "setting": "[3]; label: 5' IRDye 800CW", "result": 315, "unit": "nM"}, {"measurement": "Kd", "setting": "[4]; label: 5' IRDye 800CW", "result": 409, "unit": "nM"}, {"measurement": "Kd", "setting": "[5]; label: 5' IRDye 800CW", "result": 347, "unit": "nM"}]}, {"binder": "AUUAUACGUGA (ssRNA)", "note": "[IR-rpoA-U]", "values": [{"measurement": "Kd", "setting": "[1]; label: 5' IRDye 800CW", "result": 266, "unit": "nM"}, {"measurement": "Kd", "setting": "[2]; label: 5' IRDye 800CW", "result": 53.3, "unit": "nM"}, {"measurement": "Kd", "setting": "[3]; label: 5' IRDye 800CW", "result": 205, "unit": "nM"}, {"measurement": "Kd", "setting": "[4]; label: 5' IRDye 800CW", "result": 279, "unit": "nM"}, {"measurement": "Kd", "setting": "[5]; label: 5' IRDye 800CW", "result": 340, "unit": "nM"}]}, {"binder": "AUUACACGUGA (ssRNA)", "note": "[Cy5-rpoA]", "values": [{"measurement": "Kd", "setting": "[1]; label: 5' Cy5", "result": 153, "unit": "nM"}, {"measurement": "Kd", "setting": "[2]; label: 5' Cy5", "result": 59.8, "unit": "nM"}, {"measurement": "Kd", "setting": "[3]; label: 5' Cy5", "result": 105, "unit": "nM"}, {"measurement": "Kd", "setting": "[4]; label: 5' Cy5", "result": 189, "unit": "nM"}, {"measurement": "Kd", "setting": "[5]; label: 5' Cy5", "result": 109, "unit": "nM"}]}, {"binder": "AUUAGACGUGA (ssRNA)", "note": "[Cy5-rpoA-G]", "values": [{"measurement": "Kd", "setting": "[1]; label: 5' Cy5", "result": 246, "unit": "nM"}, {"measurement": "Kd", "setting": "[2]; label: 5' Cy5", "result": 59, "unit": "nM"}, {"measurement": "Kd", "setting": "[3]; label: 5' Cy5", "result": 113, "unit": "nM"}, {"measurement": "Kd", "setting": "[4]; label: 5' Cy5", "result": 315, "unit": "nM"}, {"measurement": "Kd", "setting": "[5]; label: 5' Cy5", "result": 112, "unit": "nM"}]}]}
